{"source": "paper PMC3468502", "target": "BCL11A (Homo sapiens) (UniProt Q9H165)", "sequence (Q9H165 whole entry)": "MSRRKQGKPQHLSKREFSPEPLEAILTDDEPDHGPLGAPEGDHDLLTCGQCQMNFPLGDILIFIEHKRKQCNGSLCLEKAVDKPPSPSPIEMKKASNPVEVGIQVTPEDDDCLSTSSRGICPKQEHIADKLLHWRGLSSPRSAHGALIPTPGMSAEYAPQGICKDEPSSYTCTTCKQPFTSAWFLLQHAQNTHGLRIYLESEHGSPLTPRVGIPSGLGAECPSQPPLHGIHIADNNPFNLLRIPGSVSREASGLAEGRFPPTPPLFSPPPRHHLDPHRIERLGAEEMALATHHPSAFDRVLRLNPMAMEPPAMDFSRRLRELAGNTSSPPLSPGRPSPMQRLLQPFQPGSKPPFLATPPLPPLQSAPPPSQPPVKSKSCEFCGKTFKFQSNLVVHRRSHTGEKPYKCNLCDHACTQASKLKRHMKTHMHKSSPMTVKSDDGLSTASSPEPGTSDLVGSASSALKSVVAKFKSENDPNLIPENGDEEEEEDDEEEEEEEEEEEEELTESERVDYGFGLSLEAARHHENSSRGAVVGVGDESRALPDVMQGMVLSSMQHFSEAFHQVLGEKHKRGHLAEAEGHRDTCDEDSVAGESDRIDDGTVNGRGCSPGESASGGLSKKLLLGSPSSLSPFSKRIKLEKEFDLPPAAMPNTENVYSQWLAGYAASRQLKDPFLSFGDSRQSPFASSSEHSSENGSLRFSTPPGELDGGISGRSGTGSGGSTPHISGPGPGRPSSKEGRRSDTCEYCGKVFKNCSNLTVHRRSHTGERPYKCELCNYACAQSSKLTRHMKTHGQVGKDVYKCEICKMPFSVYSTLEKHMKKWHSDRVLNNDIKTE", "assay": "EMSA supershift", "conditions": "with NF-Y, EMSA with nuclear extracts, 100x molar excess competitors, buffer and temperature not given (refs 25-27)", "data": [{"sequence": "GCCTTGCCTTGACCAATAGCCTTGACAAGGCAAACTTGACCAATAGTCTTAGAGTATCCAGTGAGGCCAGGGGCCGGCGGCTGGCTAGGGATGA (double strand) [Wt proximal gamma-globin promoter probe (94 bases)]", "values": [{"measurement": "binding signal (% of NF-Y band supershifted)", "setting": "D14 extract", "result": 40}, {"measurement": "binding signal (% of NF-Y band supershifted)", "setting": "K562 extract", "result": 30}, {"measurement": "binding signal (% of NF-Y band supershifted)", "setting": "fetal liver extract", "result": 30}]}]}
